We go through nine substances from patent US20040146519A1.

The assay deals with HLA-A*2401 (human). Nature of the assay: inhibition of 125I probe peptide binding to purified HLA.
In the case of “CEA peptide, position 27, 10 amino acids”, the relative binding ratio was 0.03. For the substance “CEA peptide, position 42, 11 amino acids”, the relative binding ratio is -0.0005. As to CEA peptide, position 94, 8 amino acids, the relative binding ratio is 0.0003. Then “CEA peptide, position 118, 8 amino acids”, with 0.001; and “CEA peptide, position 137, 8 amino acids”, with 0.0006; and “CEA peptide, position 248, 10 amino acids”, with 0.0002. As for “CEA peptide, position 356, 8 amino acids”, the relative binding ratio was determined as 0.0009. With “CEA peptide, position 390, 10 amino acids”, the relative binding ratio was determined as 0.0002. As for “CEA peptide, position 448, 8 amino acids”, the figure is 0.0005.
